Measured values: PMC9218516, “SifR is an Rrf2-family quinone sensor associated with catechol iron uptake in Streptococcus pneumoniae D39” (The Journal of Biological Chemistry, 2022)

How the values were obtained:
[1] = molecular target: Streptococcus pneumoniae SifR C102S (Streptococcus pneumoniae D39); experiment: SEC
CatE (SpCatE, SPD_0072) [2] = molecular target: T1, CatE (SpCatE, SPD_0072) (Streptococcus pneumoniae, UniProt A0A0H2ZQ49); experiment: UV-Vis at […] nm and MS of ring-cleavage product; format: biochemical; details: 5 uM Fe(II)-CatE, 100 uM substrate, ambient O2, pH 7.4, room temperature
T1 construct: pHis.parallel1, E. coli BL21(DE3); His6 tag removed with TEV protease; Fe(II)-reconstituted

[3] = molecular target: Streptococcus pneumoniae SifR C84S/C102S (Streptococcus pneumoniae D39); experiment: SEC
CatE (SpCatE, SPD_0072) [4] = molecular target: T1, CatE (SpCatE, SPD_0072); experiment: UV-Vis and MS of ring-cleavage product; format: biochemical; details: 5 uM Fe(II)-CatE, 100 uM substrate, ambient O2, pH 7.4, room temperature
[5] = molecular target: Streptococcus pneumoniae SifR C84S (Streptococcus pneumoniae D39); experiment: SEC
[6] = molecular target: Streptococcus pneumoniae SifR (streptococcal IscR-like family transcriptional repressor), WT (Streptococcus pneumoniae D39); experiment: SEC
YhdA (SpYhdA, SPD_1375) = molecular target: T2, YhdA (SpYhdA, SPD_1375) (Streptococcus pneumoniae, UniProt A0A0H2ZRU6); experiment: ferric reductase, ferrozine capture at […] nm; format: biochemical; details: 10 uM FMN, 100 uM Fe(III)-NTA, 100 uM NADH or NADPH, pH 7.5, 25 C
T2 construct: pHis.parallel1, E. coli BL21(DE3); His6 tag removed with TEV protease

SifR (SpSifR, SPD_1448) = molecular target: T3, SifR (SpSifR, SPD_1448) (Streptococcus pneumoniae, UniProt A0A0H2ZNG7); experiment: LC-ESI-MS and tandem LC-MS/MS adduct; fluorescence anisotropy DNA release; format: binding; details: covalent at C102, slower than BQ, mainly monoadduct; 20-fold excess, 1 h, pH 7.5
T3 construct: pHis.parallel1, E. coli BL21(DE3); His6 tag removed with TEV protease; homodimer; about 16 kDa protomer (BQ2-SifR expected 16,227 Da)

SifR WT [7] = molecular target: T4, SifR WT (Streptococcus pneumoniae D39, UniProt A0A0H2ZNG7 1-145); experiment: fluorescence anisotropy competition; reduced, 2 mM TCEP; competitor of F-catE; 25 mM Tris-HCl, 150 mM NaCl, 2 mM EDTA, 2 mM TCEP, pH 7.5, 25 C, ~10 nM labeled DNA (Fig S8: 50 mM Tris-HCl, 150 mM NaCl, pH 7.4, 25 C; NMR: 25 mM MES pH 6.5, 150 mM NaCl, 25 C); details: protein: recombinant; tags: His6 removed by TEV; tag-free; chain copies: 2; blunt
15N-SifR WT = 15N-SifR WT (Streptococcus pneumoniae D39, UniProt A0A0H2ZNG7 1-145); experiment: NMR (1H,15N-TROSY); reduced; pH 6.5; 25 mM Tris-HCl, 150 mM NaCl, 2 mM EDTA, 2 mM TCEP, pH 7.5, 25 C, ~10 nM labeled DNA (Fig S8: 50 mM Tris-HCl, 150 mM NaCl, pH 7.4, 25 C; NMR: 25 mM MES pH 6.5, 150 mM NaCl, 25 C); details: protein: recombinant; tags: His6 removed by TEV; 15N-labeled; chain copies: 2
SifR WT [8] = molecular target: T4, SifR WT; experiment: fluorescence anisotropy; reduced, 2 mM TCEP; 25 mM Tris-HCl, 150 mM NaCl, 2 mM EDTA, 2 mM TCEP, pH 7.5, 25 C, ~10 nM labeled DNA (Fig S8: 50 mM Tris-HCl, 150 mM NaCl, pH 7.4, 25 C; NMR: 25 mM MES pH 6.5, 150 mM NaCl, 25 C); details: protein: recombinant; tags: His6 removed by TEV; tag-free; chain copies: 2; label: 5'-fluorescein; blunt
SifR C84S = SifR C84S (Streptococcus pneumoniae D39, UniProt A0A0H2ZNG7 1-145, C84S); experiment: as above; details: protein: recombinant; tags: His6 removed by TEV; tag-free; chain copies: 2; label: 5'-fluorescein; blunt

## Streptococcus pneumoniae SifR C102S (natural protein)
[1]
  stoichiometry N: 2

## Oc1ccccc1O [catechol]
CatE (SpCatE, SPD_0072) [2]
  UV-Vis at 375 nm and MS of ring-cleavage product: we first monitored its activity using UV–Vis spectroscopy against freshly prepared catechol

## Streptococcus pneumoniae SifR C84S/C102S (natural protein)
[3]
  stoichiometry N: 2

## NC[C@H](O)c1ccc(O)c(O)c1 [NE, norepinephrine]
CatE (SpCatE, SPD_0072) [4]
  UV-Vis and MS of ring-cleavage product: SpCatE can utilize each of these compounds as substrates

## Streptococcus pneumoniae SifR C84S (natural protein)
[5]
  stoichiometry N: 2

## Streptococcus pneumoniae SifR (streptococcal IscR-like family transcriptional repressor), WT (natural protein)
[6]
  stoichiometry N: 2

## Cc1cc2nc3c(=O)[nH]c(=O)nc-3n(C[C@H](O)[C@H](O)[C@H](O)COP(=O)(O)O)c2cc1C [FMN]
YhdA (SpYhdA, SPD_1375)
  ferric reductase, ferrozine capture at 562 nm: SpYhdA has significant activity and prefers FMN over FAD

## CN1CC(O)C2=CC(=O)C(=O)C=C21 (stereo not drawn) [Adc, adrenochrome]
SifR (SpSifR, SPD_1448)
  LC-ESI-MS and tandem LC-MS/MS adduct; fluorescence anisotropy DNA release: Adc reacts more slowly to yield some monoadducted product

B1: trxB O/P (dsDNA)
DNA 1: GAAAGAGTTAGAATAAAGATAGTTACAACAAG
DNA 2: CTTGTTGTAACTATCTTTATTCTAACTCTTTC
SifR WT [7]
  Ka: 0.13 ± 0.04 10^8 M-1

B2: fre O/P (dsDNA)
DNA 1: GATAAAATGTAACAAATTTATTTACAACAAATC
DNA 2: GATTTGTTGTAAATAAATTTGTTACATTTTATC
SifR WT [7]
  Ka: 0.25 ± 0.05 10^8 M-1

B3: fre operator 23 bp (dsDNA)
DNA 1: AATGTAACAAATTTATTTACAAC
DNA 2: GTTGTAAATAAATTTGTTACATT
15N-SifR WT
  binding result: binds

B4: F-catE O/P (dsDNA)
DNA 1: TATAGTTGTAATAATAATAATTACAACGAG
DNA 2: CTCGTTGTAATTATTATTATTACAACTATA
modifications: fluorescein-dT at 5' position 1 of strand 1
SifR WT [8]
  Ka: 1 ± 0.2 10^8 M-1
SifR C84S
  Ka: 4.8 ± 1.5 10^8 M-1

B5: yhdA O/P (dsDNA)
DNA 1: GTTTTGTTGTAATATATTTTATAACAACGAG
DNA 2: CTCGTTGTTATAAAATATATTACAACAAAAC
SifR WT [7]
  Ka: 0.23 ± 0.04 10^8 M-1

B6: ywnB O/P (dsDNA)
DNA 1: CAATTGCTGTAACTAAAATAATTACAACAAG
DNA 2: CTTGTTGTAATTATTTTAGTTACAGCAATTG
SifR WT [7]
  Ka: 3.2 ± 0.4 10^8 M-1
